# Experimental data: US9802997B2, “Peptides and combination of peptides for use in immunotherapy against various tumors” (immatics biotechnologies GmbH, priority 2015, dated 2017)
# Legend:
# [1] = target: HLA-A*02:01 (Homo sapiens, UniProt P04439, D140Y/D185E/D98H/E176V/E277Q/G131W/G231S/I119V/I121R/I166T/I218V/L300P/L318F/N151K/N90K/P208A/P217A/Q86G/Q94H/R138H/R169H/T345S); test: MHC binding assay (UV-ligand exchange, beta2m ELISA); settings: binding to HLA-A*02:01, β2m ELISA
# Method in brief: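 UV-exchange pMHC monomers, 100-fold diluted → streptavidin capture 1 h 37 °C → HRP anti-β2m 2 ug/ml 1 h 37 °C → TMB, A450. Yield from HLA-A*02:01/MLA-001 monomer standard curve, 15-500 ng/ml. Only stably bound peptides keep β2m-containing complexes intact.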
# [2] = tested on: CD8+ T cells of healthy HLA-A*02 donors; test: In vitro immunogenicity: in vitro T-cell priming with aAPCs loaded with peptide/MHC complexes and anti-CD28 antibody, pMHC multimer readout; format: cell-based, human; settings: for Wells positive [%]: HLA-A*02 restricted peptides
# Text: In order to obtain information regarding the immunogenicity of the TUMAPs of the present invention, the inventors performed investigations using an in vitro T-cell priming assay based on repeated stimulations of CD8+ T cells with artificial antigen presenting cells (aAPCs) loaded with peptide/MHC complexes and anti-CD28 antibody.
# In order to perform in vitro stimulations by artificial antigen presenting cells loaded with peptide-MHC complex (pMHC) and anti-CD28 antibody, the inventors first isolated CD8+ T cells from fresh HLA-A*02 leukapheresis products via positive selection using CD8 microbeads (Miltenyi Biotec, Bergisch-Gladbach, Germany) of healthy donors obtained from the University clinics Mannheim, Germany, after informed consent. PBMCs and isolated CD8+ lymphocytes were incubated in T-cell medium (TCM) until use consisting of RPMI-Glutamax (Invitrogen, Karlsruhe, Germany) supplemented with 10% heat inactivated human AB serum (PAN-Biotech, Aidenbach, Germany), 100 U/ml Penicillin/100 μg/ml Streptomycin (Cambrex, Cologne, Germany), 1 mM sodium pyruvate (CC Pro, Oberdorla, Germany), 20 μg/ml Gentamycin (Cambrex). 2.5 ng/ml IL-7 (PromoCell, Heidelberg, Germany) and 10 U/ml IL-2 (Novartis Pharma, Nürnberg, Germany) were also added to the TCM at this step. Generation of pMHC/anti-CD28 coated beads, T-cell stimulations and readout was performed in a highly defined in vitro system using four different pMHC molecules per stimulation condition and 8 different pMHC molecules per readout condition.
# The purified co-stimulatory mouse IgG2a anti human CD28 Ab 9.3 (Jung et al., 1987) was chemically biotinylated using Sulfo-N-hydroxysuccinimidobiotin as recommended by the manufacturer (Perbio, Bonn, Germany). Beads used were 5.6 μm diameter streptavidin coated polystyrene particles (Bangs Laboratories, Illinois, USA).
# pMHC used for positive and negative control stimulations were A*0201/MLA-001 (peptide […] (SEQ ID NO. 289) from modified Melan-A/MART-1) and A*0201/DDX5-001 ([…] from DDX5, SEQ ID NO. 290), respectively.
# 800.000 beads/200 μl were coated in 96-well plates in the presence of 4×12.5 ng different biotin-pMHC, washed and 600 ng biotin anti-CD28 were added subsequently in a volume of 200 μl. Stimulations were initiated in 96-well plates by co-incubating 1×10^6 CD8+ T cells with 2×10^5 washed coated beads in 200 μl TCM supplemented with 5 ng/ml IL-12 (PromoCell) for 3 days at 37° C. Half of the medium was then exchanged by fresh TCM supplemented with 80 U/ml IL-2 and incubating was continued for 4 days at 37° C. This stimulation cycle was performed for a total of three times. For the pMHC multimer readout using 8 different pMHC molecules per condition, a two-dimensional combinatorial coding approach was used as previously described (Andersen et al., 2012) with minor modifications encompassing coupling to 5 different fluorochromes. Finally, multimeric analyses were performed by staining the cells with Live/dead near IR dye (Invitrogen, Karlsruhe, Germany), CD8-FITC antibody clone SK1 (BD, Heidelberg, Germany) and fluorescent pMHC multimers. For analysis, a BD LSRII SORP cytometer equipped with appropriate lasers and filters was used. Peptide specific cells were calculated as percentage of total CD8+ cells. Evaluation of multimeric analysis was done using the FlowJo software (Tree Star, Oregon, USA). In vitro priming of specific multimer+CD8+ lymphocytes was detected by comparing to negative control stimulations.
# [3] = percentage of positive wells among evaluable
Substance,"Peptide exchange (MHC class I binding score, peptide exchange yield) [1]","Wells positive [%] [2, 3]","in vitro immunogenicity: donors ([2]; percentage of positive donors among evaluable, HLA-A*02 healthy donors, three stimulation cycles)","in vitro immunogenicity: wells ([2]; percentage of positive wells among evaluable, HLA-A*02 healthy donors, three stimulation cycles)"
236 (KMSELQTYV; listed as Homo sapiens) [compound 236],+++ (≧50 = +++),+ (<20% = +),,
89 (SLAETIFIV; listed as Homo sapiens) [compound 89],+++ (≧50 = +++),+ (<20% = +),,
35 (VIIKGLEEI; listed as Homo sapiens) [compound 35],++ (≧20% = ++),+ (<20% = +),,
254 (ALGDKFLLRV; listed as Homo sapiens) [compound 254],++ (≧20% = ++),+ (<20% = +),,
260 (ALNESLVEC; listed as Homo sapiens) [compound 260],+++ (≧50 = +++),+ (<20% = +),,
27 (GLLGKVTSV; listed as Homo sapiens) [compound 27],+++ (≧50 = +++),+ (<20% = +),,
77 (ALYGNVQQV; listed as Homo sapiens) [compound 77],+++ (≧50 = +++),+ (<20% = +),,
29 (KMISAIPTL; listed as Homo sapiens) [compound 29],++ (≧20% = ++),+ (<20% = +),,
14 (YTFSGDVQL; listed as Homo sapiens) [compound 14],+++ (≧50 = +++),+ (<20% = +),,
4 (VLFGELPAL; listed as Homo sapiens) [compound 4],+++ (≧50 = +++),+ (<20% = +),,
97 (KLFEKSTGL; listed as Homo sapiens) [compound 97],+++ (≧50 = +++),+ (<20% = +),,
121 (ALYVQAPTV; listed as Homo sapiens) [compound 121],++ (≧20% = ++),+ (<20% = +),,
288 (SLYKGLLSV; listed as Homo sapiens) [compound 288],,,++++ (>=70% = ++++),
39 (YLEDGFAYV; listed as Homo sapiens) [compound 39],+++ (≧50 = +++),++++ (>=70% = ++++),,
287 (KIQEILTQV; listed as Homo sapiens) [compound 287],,,,+ (<20% = +)
23 (ALLSPLSLA; listed as Homo sapiens) [compound 23],+++ (≧50 = +++),,,
166 (LLGDSSFFL; listed as Homo sapiens) [compound 166],+++ (≧50 = +++),,,
219 (GVVPTIQKV; listed as Homo sapiens) [compound 219],++ (≧20% = ++),,,
108 (FIANLPPELKA; listed as Homo sapiens) [compound 108],+++ (≧50 = +++),,,
259 (GPGIFPPPPPQP; listed as Homo sapiens) [compound 259],+ (≧10% = +),,,
241 (KQFEGTVEI; listed as Homo sapiens) [compound 241],+++ (≧50 = +++),,,
70 (GLTEKTVLV; listed as Homo sapiens) [compound 70],++ (≧20% = ++),,,
